These results are taken from article PMC9456297 (International Journal of Molecular Sciences, 2022).

In assay [1] the target is AviTag-238D2 (biotinylated, c-myc-tagged 238D2). Description: BLI.
Assay [2] deals with AviTag-3SM5 (biotinylated, c-myc-tagged 3SM5 VH). Description: BLI. A general note: BLI is a label-free optical method that tracks binding on a fibre tip over time.
The target of assay [3] is T1, SNAP-tagged hCXCR4 labelled with Lumi4-Terbium (human, UniProt P61073 1-352, Lumi4-Terbium on the SNAP tag).
T1 construct: also called SNAP-CXCR4; Terbium-linked SNAP-tagged CXCR4
The assay can be described thus: AlphaScreen or HTRF. The settings on record: one partner purified. (In general: Bead proximity is the source of the signal in Alpha formats.)

T1 sequence (P61073 whole entry): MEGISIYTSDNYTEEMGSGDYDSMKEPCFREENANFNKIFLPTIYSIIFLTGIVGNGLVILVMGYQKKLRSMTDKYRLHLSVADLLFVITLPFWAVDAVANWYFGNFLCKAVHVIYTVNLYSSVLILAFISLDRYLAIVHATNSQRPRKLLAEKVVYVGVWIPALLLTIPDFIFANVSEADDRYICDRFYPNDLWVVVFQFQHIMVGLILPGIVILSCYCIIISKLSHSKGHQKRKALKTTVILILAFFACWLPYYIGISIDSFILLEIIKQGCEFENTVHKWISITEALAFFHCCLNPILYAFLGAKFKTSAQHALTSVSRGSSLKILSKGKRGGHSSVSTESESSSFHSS

The term Kd denotes the free concentration of one partner at which half of the binding sites on the other are occupied at equilibrium, for simple one-to-one binding. A low value points to tighter binding. Take “Influenza A H1N1 (A/SOLOMON ISLANDS/3/2006): hemagglutinin H1 as a fusion protein with the neuraminidase N1”: the Kd in assay [1] was 119 nM; in assay [2], 236 nM.

B1: 238D2 nanobody (bacterially produced, c-myc- and His-tagged) (VHH)
VHH: EVQLVESGGGLVQTGGSLRLSCAASGFTFSSYAMSWVRQAPGKGLEWVSGIKSSGDSTRYAGSVKGRFTISRDNAKNMLYLQMYSLKPEDTAVYYCAKSRVSRTGLYTYDNRGQGTQVTVSS
notes: also called anti-CXCR4 Nb
One may read the IC50 as the concentration at which inhibition is half-maximal. Read a high IC50 as weaker potency. Turning to B1, in assay [3], the midpoint of inhibition, the IC50, lay at 58.4 nM.

B2: 4N1H VHH (bacterially produced, c-myc- and His-tagged) (VHH)
VHH: EVQLQESGGGLVQAGASLKLSCAASGRTFSSYAMGWFRQAPGKEREFVAAISRSGGDTKYADSVKGRFAISRDNDKNTVWLRMNSLKPEDTAVYYCAATTYASLSDTYIGEHIYDDWGQGTQVTVSS
notes: also called cAB-F11N
For B2, the half-maximal inhibitory concentration (IC50) in assay [3] was determined as 39.8 nM.

B3: 3SM5 VH domain (bacterially produced, c-myc- and His-tagged) (domain or fragment)
VH: MEVQLVQSGAEVKKPGASVKVSCKASGYTFTDYHINWVRQAPGQGLEWMGWIHPNSGDTNYAQKFQGWVTMTRDTAISTAYMEVNGLKSDDTAVYYCARGGLEPRSVDYYYYGMDVWGQGTTVTVSS
notes: also called VH of CH65
B3: it took 69.1 nM to reach half-maximal inhibition in assay [3] (IC50).
